The record followed here is the nanobody polyreactivity screen of Harvey et al. (2022).

A short description of the series: yeast display, Sf9 membrane polyspecificity reagent, FACS + sequencing; frameworks hold sequencing errors. An outline of the steps: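 A synthetic nanobody library was expressed on Saccharomyces cerevisiae BJ5465 by galactose induction for 36–48 hours. The library was stained for 1 hour at 4 °C with 10% biotinylated, detergent-solubilized Sf9 membrane reagent and enriched with streptavidin microbeads before FACS. Low and high (top ~1%) gates were set on anti-HA fluorescence for expression and streptavidin fluorescence for reagent binding, and each polyreactivity label reflects the gate of origin.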
For the sequence “QVQLVESGGGLVQAGGSLRLSCAASGRTFGRYVMGWYRQAPGKERELVAAITSSSSSTYADSVKGRFTISRDNAKNTVHLEMNSLKPEDTAVYYCNKRFPSRHRPEYDYWGQGTQVTVSS”, the “polyreactivity (PSR sort gate)” value was “high polyreactivity”.

As to “QVQLVESGGGLVQAGGSLRLSCAASGNIFYPYAMGWYRQAPGKERELVAAISWSDGSTYYADSVKGRFTISRDNAKNTVYLQMNILKPEDTAVYYCAAEAYISNYYGRDYWGQGTQVTVSS”, the “polyreactivity (PSR sort gate)” value was “high polyreactivity”.

For the sequence “QVQLVESGGGLVQAGGSLRLSCAASGIIFWYYAMGWYRQAPGKERELVASIDWSGGSTYYADSVKGRFTISRDNAKNTVYLQMKSLKPEDTAVYDCNAGSDIYWSAATYGYWGQGTQVTVSS”, the “polyreactivity (PSR sort gate)” value is on record as “high polyreactivity”.

In the case of “QVQLVDSGVGLVQAGGSLRLSCAASGRTFTTNTKGWYRDATWKERELVAAITWSGASTYYADSVKGRFTISRDNAKNTVYLQMNSLKPEDTAVYYCAAERTPSYRAYDYWGQGTQVTVSS”, the “polyreactivity (PSR sort gate)” value is reported as “low polyreactivity”.

Turning to “QVQLVESGGGLVQAGGSLRLSCAASGFIFGSNAMGWYRQAPGKERELVAAISRSGGSTYYADTVKGRFTISRDNAKNTVYLQMNSLKPEDTAVYYCNVDLWPFVYSWWSYDYWGQGTQVTVSS”, the “polyreactivity (PSR sort gate)” value was “high polyreactivity”.

In the case of “QVQLVESGGGLVQAGGSLRLSCAASGFIYKYAMGWYRPAPGKERELVAAISQNGGSTRYADSVKGRFTISRDNAKNTVYLQMNSLKPEDTAVYYCNTGVARGYKYWGQGTQVTVSS”, the “polyreactivity (PSR sort gate)” value is reported as “high polyreactivity”.

Turning to “QVQLVESGGGLVQAGGSLRLSCAASGSIFQAYAMGWYRQAPGKERELVASISQSGDSTYYADSVKGRFTISRDNAKNTVYLQMNSLKPEDTAVYYCAAVQYGHRRGRVSVRRRLDYWGQGTQVTVSS”, the “polyreactivity (PSR sort gate)” value was “low polyreactivity”.

As for “QVQLVESGGGLVQAGGSLRLSCAASGSIFIYYAMGWTRQAPGKERELVATISSDDRTNYTDSVKGRFTISRDNAKNTVYLQMNSLKPEDTAVYYCAADRYWGGRDGPEYDYWGQGTQVTVSS”, the “polyreactivity (PSR sort gate)” value is recorded as “low polyreactivity”.

For “QVQLVESGGGLVQAGGSLRLSCAASGITFYVYAMGWYRQAPGKERELVAAISSGSSTYYADSVKGRFTISRDNAKNTVYLQMNSLKPEDTAVYYCAARYRKYLSEYWGQGTQVTVSS”, the “polyreactivity (PSR sort gate)” value is listed as “high polyreactivity”.

Turning to “QVQLQECGGGLVQEGGSLRLSCAASGTYSNSVKWLYCQAPGKEREFVATIGVGGSTNYADSVKGRFTISRDIAKNSVYLQMNSLKPDDTAVYHCSAYGAASNFHYYRGQGTQVTVSS”, the “polyreactivity (PSR sort gate)” value is given as “low polyreactivity”.

With “QVQLVESGGGLVQAGGTLRLSCAPSGSIFGDYVMGWYRQAPGKEWELVAAINRGGSTYYADSVKGRFTISRDNAKNTVYLQMKSLKPEDTAVYYCAAGYPSWYYGYPYDSWGQGTQVTVSS”, the “polyreactivity (PSR sort gate)” value is reported as “low polyreactivity”.

Take “QFQLVESGGGIVQAGGSLRLSCAASGRTIYQYAMGWYRESPANERELVAAISRSGTSTYYADSVKGRFTISRDNAKNTVYLQMNSLKPEDTAVYFCAARYVSKYNYPSPEMYYWGQGTKVTVSS”: the “polyreactivity (PSR sort gate)” value is “high polyreactivity”.

As to “QVHLVESGGGLVQAGGSLRLSCAASGRTFYDYTMGLDRQAPGKERELVAAISQRGGSTYYADSVKGRFTISRDNAKNTVYLQMNSLKPEDTAVYYCAARTSYSGNKYYYWGQGTQVTVSS”, the “polyreactivity (PSR sort gate)” value is given as “high polyreactivity”.

On to “QVQLVESGGGLVQAGGSLRLSCAASGRIFYPYAMGWYRQAPGKEREFVAAISYRGTSTFYADSVKGRFTISRDNAKNTVYLQMNSLKPEDTAVYYCAARVLWYGRATAAVTPYDYWGQGTQVTVSS”, for which the “polyreactivity (PSR sort gate)” value is given as “high polyreactivity”.

As for “QVQLVESGGGLVQAGGSLRLSCAASGSIFEGNARGWYRQAPGKERELVAAISTTGGITYYADAVKGRFTISRANAKNTVDLQKNSLKPEDTAVDYCAADPSQPRNDSSNYDYWGQGTQVTVSS”, the “polyreactivity (PSR sort gate)” value was “low polyreactivity”.

With “QVQLVESGGGLVQAGGSLRLSCAASGRIFGQNAMGWYRQAPGKERELVAAITGSGGRTYYADSVKGRFTISRDNAKNTVYLQMNSLKPEYTAVYYCAVSVTSYYRTMDYWGQGTQVTVSS”, the “polyreactivity (PSR sort gate)” value is on record as “low polyreactivity”.

Regarding “QVQLVESGGGLVQAGGSLRLSCAASGSNFNRYAMGWYRQAPGKERELVAAITSTGGTNYADSVKGRFTISLDNAKNSVYLQMNSLKPEDTAVYYCAKRWLRWRSNYWGQVTQVTVSS”, the “polyreactivity (PSR sort gate)” value is reported as “high polyreactivity”.

On to “QVQLVESGGGLVQAGGSLRLSCAASGRIFFGYAMGWYRQAPGKEREFVAAINWIGGRTYYADSVKGRFTISRDNAKNTVYLQMNSLKPEDTAVYYCAKEVSPYWTFDYWGQGSQVTVSS”, for which the “polyreactivity (PSR sort gate)” value is recorded as “low polyreactivity”.

“QVQLVESGGGLVQAGGSLRLSCAASGSILGDNAMAWYRQAPGKERELVAAISYRGGSTYADSVKGRFTISRANAKNTVYLQMNSLKPEDTAVYYCNKTDIDDSQYREYEYWGQGTQVTVSS”: the “polyreactivity (PSR sort gate)” value was “low polyreactivity”.

On to “QVQLVESGGGLVQAGGSLRLSCAASGRIFDCYAMGWYSQAPGKERELVAAITSRGGSTYYADSVKGRFTISRDNAKNTVYLQMNSLKPEDTAVYYCAKRSTSRGYDYWGQGTQVTVSS”, for which the “polyreactivity (PSR sort gate)” value was “high polyreactivity”.

Turning to “QVQLVESGGGLVQAGGSLRLICAASGNTFYGYAMGWYRQAPGKERELVASITLSGDSTYYADSVKGRFTISRDNAKNTVYLQMNSLKPEDTAVYYCNRARHQYSRWHGGYYYWGQGTQVTVSS”, the “polyreactivity (PSR sort gate)” value is on record as “low polyreactivity”.

On to “QVQLVESGGGLVQAGGSLRLSCAASGFIFAYYAMGWYRQAPGKERELVAAISSRGGTYYADSVKGPFTISRDNAKNTVYLQMNSLKPEDTAVYYCAAASYTWVSLGYEYWGQGTQVTVSS”, for which the “polyreactivity (PSR sort gate)” value was “high polyreactivity”.

“QVQLVESGGGLVQAGGSLRLSCAASGSSFSGNFMGWYRQAPGKERELVAAISGRGGSTYYADSVKGRFTISRDNAKNTVYLQMNSLKPEDTAVYYCDAVYLKTYYWGLGTQVTVSS”: the “polyreactivity (PSR sort gate)” value is listed as “high polyreactivity”.

Regarding “QVQLVESGGGLVQAGGSLRLSCAASGFTFWSYTMGRYRQPHGKETELVADISWSGGSTYYADSVKGRFTISRDNAKNTVYLQMNSLKPEDTAVLYCNADGPFWARRSSRYYWGQGTQVTVSS”, the “polyreactivity (PSR sort gate)” value is “high polyreactivity”.

In the case of “QVQLVESGGGLVQAGGSLRLSCAASGFIFPSNVMGWYRQATGKERELVAAISTRGGRTYYADSVKGRFTISRDNAKNTVYLQMNSLKPEDTAVYYCAASISRQGGVGYWGQGTQVTVSS”, the “polyreactivity (PSR sort gate)” value was “high polyreactivity”.

Take “QVQLVESGGGLVQAGGSLRLSCAASGNTFNIYAMGWYRQAPGKETEFVAAITVSDTSTYYADSVKGRFTISRDSAKNTVYLQMKSLKPEDTAVYYCNADWWGTYDYYYWGQGTHVTVSS”: the “polyreactivity (PSR sort gate)” value is “low polyreactivity”.

On to “QVQLVESGGGLVQAGGSLRLSCAASGRTFSRNAMGWYRQAPGKERELVAAITSRGGTTYYADSVKGRFTISRDNAKNTVYLQMNSLKPEDTAVYYCNAAPRARSKVSYDYWGQGTQVTVSS”, for which the “polyreactivity (PSR sort gate)” value is reported as “high polyreactivity”.

In the case of “QVQLVESGGGLVQAGGSLRLSCSASGGIFWVYAMGWYRQAPGKERELVAAISNSDTSTSYADSVKGRFTISRDNAKNTVYLQMNSLKPEDTAVYYCNADSPSLSGDYWGQGTQVTVSS”, the “polyreactivity (PSR sort gate)” value is listed as “low polyreactivity”.

Take “QVKLVESGGGLVQAGGSLRLSCAAYGSTFTRNAMGWYRQAPGKERQLVAAITSGGSTNYADSVKGRFTISRDNAKNTVYLEMNSLKPEDTAVYYCAAGLGRYFYSWRYLYSIFDYWGQGTQVTVSS”: the “polyreactivity (PSR sort gate)” value was “low polyreactivity”.

For “QVQLVESGGGLVQAGGSLRLSCAASGSTFYAYVMGWYRQAPGKERELVAAITSAGSTYYADSVKGRFTISRDNAKNTVYLQMNSLKPEDTAVYYCAAYYIVHSRQTQGFERYDYWGQGTQVTVSS”, the “polyreactivity (PSR sort gate)” value was “low polyreactivity”.

On to “QVQLVESGGGLVQAGGSLRLSCAASGSIIRWYTMAWYRQAPGKESEFVAAITRSGGSTYYADSVKVRFTISRDNAKNTVYLQMNSLKPEDTAVYYCARYANYDKRYDYWGQGTQVTVSS”, for which the “polyreactivity (PSR sort gate)” value was “high polyreactivity”.

As for “QVQLVESGGGLVQAGGSLRLSCAASGSTFRGYVMGWYRQAPGQERELVAVINSSGGRTYYADSVKGRFTISRDNAKNTVYLQMNSLKPEDTAVYYCAARVLQYSGYYYWGQGTQVTVSS”, the “polyreactivity (PSR sort gate)” value is recorded as “high polyreactivity”.

As to “QVQLVESGGGLVQAGGSLRLSCAASGFIFIYNAMGWYRHAPGKERELVATINWSGGDSTYYADSVKGRFTISRDKAKNTVSLQMNSLKPEDTSVYYCATLSWYQQAYDYWGQGTQVTVSS”, the “polyreactivity (PSR sort gate)” value is listed as “low polyreactivity”.

On to “QVQLVESGGGLVQAGGSLRLSCAASGFIFYRNTMGWYRQAPGKEREFVAAIRWRGGSTYYADSVKGRFTISRDNAKNTVYLQMNSLKPEDTAVYYCAADTRPGYSGFEYWGQGTQVTVSS”, for which the “polyreactivity (PSR sort gate)” value is listed as “high polyreactivity”.

Take “QVQLVESGGGLVHAGGSLRLSCAASGRIFTIYAMGWYRQAPGKERELVAAISDRGTRTYYADSVKGRFTISRDNAKNTVYLQMNSLKPEETAVYYCATDALYTYGYDYWGQGTQVTVSS”: the “polyreactivity (PSR sort gate)” value is “low polyreactivity”.

“QVQLVESGGGLVQAGGSLRLSCAASGRIFVGYAMGWYRQAPGKEREFVAAISRNGGRTYYADSVKGRFTISRDNAKNTVYLQMNSLKPEDTAVYYCATEKYVPSPGGYWGQGTQVTVSS”: the “polyreactivity (PSR sort gate)” value is reported as “high polyreactivity”.

Turning to “QVQLVESGGGLVQAGGSLRLSCAASGITYRWKAMGWYRQAPGKERELVAAITTRGGGTYYAVSVKGRFTISRDNAKNTVYLQMISLKPEDTAVYYCAAKKSRYPYNYWGQGTQVTVSS”, the “polyreactivity (PSR sort gate)” value is “high polyreactivity”.

In the case of “QVQLVESGGGLVQAVGSLRLSCAASGRIFPYYAMGWYSQAPGKERELVAVFTIGGNSYYADSVKGRFTMSRDNAKNTVYLQMNSLKPEDTAVYYCAASAYSYYRFDYWGQGTQVTVSS”, the “polyreactivity (PSR sort gate)” value is given as “low polyreactivity”.

In the case of “QVQLVESGAGLVQAGGSLRLSWAPSGITFLYYAMGLYRQAPGTEMELVATISISGGSTYYADSVKGRFTISRDNAKYTVYLQMTSLQPEESAVYYCAADDSVVTYSYDTWLVDYDYWGQATQVTVSS”, the “polyreactivity (PSR sort gate)” value is “low polyreactivity”.

For “QVQLVESGGGLVQAGGSLRLSCAASGSIFTTNTMGWYRQAPGKERELVAAISSGGGTHYADSVKGRFTISRDNAKNTVYLQMNSLKPEDTAVYYCDARSYYYEWFGDVAMYYWGQGTQVTVSS”, the “polyreactivity (PSR sort gate)” value is listed as “low polyreactivity”.

Consider “QVQLVESGGGLVQAGGSLRLSCAASGSTIYYNAMGWYRQAPGKERELVARISRSGGSTYADSVKGRFTISRDNAKNTVYLQMNSVKPEDTAVYYCNADAYGTPEFSSYAVRYDYWGQGTQVTVSS”, for which the “polyreactivity (PSR sort gate)” value is “low polyreactivity”.
